Results taken from patent KR20240034671A (dated 2024).

Target: T1, human PTK7-Ig3-4-His (human, UniProt Q13308 221-409, limits assumed)
T1 construct: domain: Ig3-4; Made from the hPTK7-Ig1-4-His construct by DpnI-mediated deletion mutagenesis; expressed in HEK293 cells; also called hPTK7-Ig3-4-His; STK7-lg3-4-His [sic]
T1 sequence: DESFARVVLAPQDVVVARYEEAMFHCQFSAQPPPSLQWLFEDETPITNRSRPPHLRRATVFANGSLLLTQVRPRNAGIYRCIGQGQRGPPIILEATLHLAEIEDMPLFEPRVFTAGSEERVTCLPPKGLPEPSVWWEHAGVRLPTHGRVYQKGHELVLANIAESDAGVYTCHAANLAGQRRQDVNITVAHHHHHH
Test: Ni-NTA pull-down of His-tagged construct incubated with mAb at 1:1 molar ratio, western blot

B1: anti-PTK7 mAb-52 (antibody, V domains shown)
VH: EVQLQQSGAELVKPGASVKLSCTASGFNIEDTYIHWVKQRPEQGLEWIGRIDPANGNDKYDPKFQGKATITADTSSNTAYLQLSSLTSEDTAVYYCARGDANYGSYWGQGTLVTVSA
VL: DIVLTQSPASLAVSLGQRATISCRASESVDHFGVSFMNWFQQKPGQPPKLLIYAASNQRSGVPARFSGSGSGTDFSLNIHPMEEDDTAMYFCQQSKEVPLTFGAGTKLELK
notes: Mouse monoclonal antibody from a hybridoma raised against purified human sPTK7, purified from ascites
  binding result: no binding
